Measured values reported in IntAct's records for PubMed 11743162.

B1: Protein BZZ1 (Saccharomyces cerevisiae), P38822 (parent)
chain: MSADLSIGNEIKDSFKETHKWVQNNLKWLKDIEQFYRERAKLEKDYSERLSRLSAEYFNKKSSTSVPISVGDTPTTTPGSIEAAGVVAWNEILSQTDMISKDHDQLSTDFENHVANQLSGLFTKLDMTLSKINGFNNDMVNKKDNIYHELEKAKKDYDEACSTMEMARNRYTKASNDRNKKKLDEKEMEMNKCKNEYLIKINQANRTKDKYYFQDVPEVLDLLQDVNEAKTLFLNDLWLKAASVENDLGANVSKRLQAANSVVKQNKPSLNTAIFIKHNLKNWKEPQDFVYKPSPVWHDDEKFAVPSSLEVEDLRIKLAKAENDYNSLQDKTQNELSKLSTLNKIKHEMKTNEDNINATKFYDTLKEYLNVVSPFTSHETLKLQAEVQIESIQNNVPEEYDLSTDNIDLSKTKKKSGIFSKFKHNILNVDSKPSSGGSTGNGNGGPLHITSLFNTSRRTRLGSAPNNAGEDSDNNSIRTTSTNNTKKTTQNSSDDGKNKVLYAYVQKDDDEITITPGDKISLVARDTGSGWTKINNDTTGETGLVPTTYIRISSAATVKANDRGPAPEVPPPRRSTLPVRTMEAIYAYEAQGDDEISIDPGDIITVIRGDDGSGWTYGECDGLKGLFPTSYCK
B2: High osmolarity signaling protein SHO1 (Saccharomyces cerevisiae), P40073 (parent)
chain: MSISSKIRPTPRKPSRMATDHSFKMKKFYADPFAISSISLAIVSWVIAIGGSISSASTNESFPRFTWWGIVYQFLIICSLMLFYCFDLVDHYRIFITTSIAVAFVYNTNSATNLVYADGPKKAAASAGVILLSIINLIWILYYGGDNASPTNRWIDSFSIKGIRPSPLENSLHRARRRGNRNTTPYQNNVYNDAIRDSGYATQFDGYPQQQPSHTNYVSSTALAGFENTQPNTSEAVNLHLNTLQQRINSASNAKETNDNSNNQTNTNIGNTFDTDFSNGNTETTMGDTLGLYSDIGDDNFIYKAKALYPYDADDDDAYEISFEQNEILQVSDIEGRWWKARRANGETGIIPSNYVQLIDGPEEMHR
B3: Protein BZZ1 (Saccharomyces cerevisiae), P38822 (parent)
chain: B1 chain
partner: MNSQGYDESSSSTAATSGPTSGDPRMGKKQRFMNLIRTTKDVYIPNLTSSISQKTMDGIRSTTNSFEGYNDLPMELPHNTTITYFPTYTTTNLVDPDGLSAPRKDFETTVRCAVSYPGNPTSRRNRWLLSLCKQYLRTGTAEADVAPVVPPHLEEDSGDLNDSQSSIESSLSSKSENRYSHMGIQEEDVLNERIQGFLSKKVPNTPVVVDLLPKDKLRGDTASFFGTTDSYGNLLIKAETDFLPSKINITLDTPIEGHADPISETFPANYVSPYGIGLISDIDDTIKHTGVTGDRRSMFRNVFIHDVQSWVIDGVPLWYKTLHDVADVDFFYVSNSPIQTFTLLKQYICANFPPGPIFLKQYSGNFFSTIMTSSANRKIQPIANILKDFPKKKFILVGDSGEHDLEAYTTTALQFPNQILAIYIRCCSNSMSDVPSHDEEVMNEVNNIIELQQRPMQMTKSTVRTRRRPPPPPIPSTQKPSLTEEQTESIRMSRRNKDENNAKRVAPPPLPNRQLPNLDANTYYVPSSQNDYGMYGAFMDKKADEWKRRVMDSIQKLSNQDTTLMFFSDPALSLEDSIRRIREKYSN

Variants of: B1
Settings: with las17_yeast LAS17, Q12446
Target sequence in this assay (Q12446 whole entry): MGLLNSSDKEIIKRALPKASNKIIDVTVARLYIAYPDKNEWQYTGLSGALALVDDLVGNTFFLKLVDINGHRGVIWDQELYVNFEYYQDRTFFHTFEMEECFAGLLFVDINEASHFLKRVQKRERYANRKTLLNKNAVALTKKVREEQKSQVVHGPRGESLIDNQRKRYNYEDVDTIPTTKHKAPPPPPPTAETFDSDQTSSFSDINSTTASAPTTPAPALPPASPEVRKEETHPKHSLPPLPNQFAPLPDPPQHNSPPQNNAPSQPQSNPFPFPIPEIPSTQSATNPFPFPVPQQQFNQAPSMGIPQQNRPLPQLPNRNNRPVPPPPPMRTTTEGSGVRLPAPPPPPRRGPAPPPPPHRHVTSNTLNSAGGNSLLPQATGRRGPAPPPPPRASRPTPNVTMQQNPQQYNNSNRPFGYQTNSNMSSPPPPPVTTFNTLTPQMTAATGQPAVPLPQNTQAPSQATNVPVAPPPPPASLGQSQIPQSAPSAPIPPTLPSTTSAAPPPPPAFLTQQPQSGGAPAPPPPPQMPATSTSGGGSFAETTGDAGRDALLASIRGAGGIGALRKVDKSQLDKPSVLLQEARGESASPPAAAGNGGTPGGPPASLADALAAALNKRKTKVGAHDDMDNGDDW

Variant	effect of a mutation on the interaction
W615S	decreasing interaction
W531S;W615S	decreasing interaction
W531S	decreasing interaction

Variants of: B2
Settings: with las17_yeast LAS17, Q12446
Target sequence in this assay (Q12446 whole entry): as above

Variant	effect of a mutation on the interaction
P352A	decreasing interaction

Variants of: B3
Settings: with app1_yeast APP1, P53933

Variant	effect of a mutation on the interaction
W531S;W615S	decreasing interaction
